Patent publication US20030060605A1 (LA JOLLA INSTITUTE FOR ALLERGY AND IMMUNOLOGY, published 2003)

B1: HVEM:Fc fusion protein (extracellular region of HVEM, 1 to K184, fused to the Fc of human IgG1) (Fc fusion, UniProt Q92956 39-184, looked up)
chain: LPSCKEDEYPVGSECCPKCSPGYRVKEACGELTGTVCEPCPPGTYIAHLNGLSKCLQCQMCDPAMGLRASRNCSRTENAVCGCSPGHFCIVQDGDHCAACRAYATSSPGQRVQKGGTESQDTLCQNCPPGTFSPNGTLEECQHQTK
notes: range 1-184; Made in the baculovirus vector pVL1392; Residues 1-184 include the signal peptide; also called huHVEM:Fc; hu HVEM:Fc; not shown: Fc of human IgG1

What was measured:
[1] = target: T1, p30 (LIGHT), the 30 kDa cell surface HVEM ligand of activated II-23.D7 T hybridoma cells and human T cells (human, UniProt O43557 1-240); assay: flow cytometry, saturation binding on activated II-23.D7 cells; whole activated (PMA + ionomycin) II-23.D7 cells; apparent half-maximal binding by flow cytometry
T1 construct: whole, on cells; On the cell surface in flow cytometry; in NP40 detergent extracts in the precipitations

LTαTyr108Phe = target: T2, LTαTyr108Phe (UniProt P01374 35-205); assay: competition flow cytometry: HVEM:Fc pre-incubated with the ligand, then added to II-23.D7 cells activated with PMA and ionomycin, anti-huIgG-PE
T2 construct: also called LTαY108F; LTα (Y108F)
T2 sequence (looked up): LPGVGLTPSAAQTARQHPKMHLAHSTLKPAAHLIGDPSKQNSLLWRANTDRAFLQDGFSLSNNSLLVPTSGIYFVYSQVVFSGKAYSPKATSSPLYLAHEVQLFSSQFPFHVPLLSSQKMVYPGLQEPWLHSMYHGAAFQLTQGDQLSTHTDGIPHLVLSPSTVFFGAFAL

[2] = target: T3, LTβ (33 kDa) and LTα (23-25 kDa) complex from detergent extracts of PMA activated II-23.D7 cells (human, UniProt P01374 35-205; Q06643 1-244); assay: flow cytometry, II-23.D7 cells activated with PMA alone, goat anti-human IgG-PE; target taken as the surface LTα1β2 of these cells [upper histogram]
T3 construct: Native complex, in NP40 extract; also called LTα1β2 complex; surface LTα1β2
T3 sequence (looked up) 1: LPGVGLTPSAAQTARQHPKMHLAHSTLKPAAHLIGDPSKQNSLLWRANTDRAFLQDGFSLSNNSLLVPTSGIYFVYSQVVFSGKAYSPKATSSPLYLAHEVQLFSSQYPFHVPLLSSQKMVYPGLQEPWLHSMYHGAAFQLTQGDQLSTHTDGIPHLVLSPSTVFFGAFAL
T3 sequence (looked up) 2: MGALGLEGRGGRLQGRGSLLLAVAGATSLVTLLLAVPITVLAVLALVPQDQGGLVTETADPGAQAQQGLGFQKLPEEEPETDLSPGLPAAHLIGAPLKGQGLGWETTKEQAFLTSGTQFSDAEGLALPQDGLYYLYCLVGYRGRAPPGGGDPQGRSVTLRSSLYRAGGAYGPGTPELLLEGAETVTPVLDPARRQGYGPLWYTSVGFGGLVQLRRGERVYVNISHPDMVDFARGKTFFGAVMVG

[3] = target: soluble HSV gD-1 (glycoprotein D of HSV-1) (herpes simplex virus type 1, UniProt Q69091 26-331); assay: binding inhibition experiments, flow cytometry
[4] = target: gD-1 (Δ290-299t), mutant of soluble HSV gD-1 (herpes simplex virus type 1, UniProt Q69091 26-331); assay: binding inhibition experiments, flow cytometry
[5] = target: B1; assay: competition flow cytometry: HVEM:Fc pre-incubated with the ligand, then added to II-23.D7 cells activated with PMA and ionomycin (p30 on the cells), anti-huIgG-PE [lower graph]
[6] = target: B1; assay: competition flow cytometry: HVEM:Fc pre-incubated with the ligand 30 min at 4 C, then added to II-23.D7 cells activated with PMA and ionomycin (p30 on the cells), anti-huIgG-PE [lower graph]
[7] = target: T1, p30 (LIGHT), the 30 kDa cell surface …; assay: competition flow cytometry: II-23.D7 cells activated with PMA and ionomycin, pre-incubated with the Fc protein, then HVEM:Fc-rabbit 2 µg/ml, goat anti-rabbit IgG-PE [lower graph]

T1 sequence (O43557 whole entry): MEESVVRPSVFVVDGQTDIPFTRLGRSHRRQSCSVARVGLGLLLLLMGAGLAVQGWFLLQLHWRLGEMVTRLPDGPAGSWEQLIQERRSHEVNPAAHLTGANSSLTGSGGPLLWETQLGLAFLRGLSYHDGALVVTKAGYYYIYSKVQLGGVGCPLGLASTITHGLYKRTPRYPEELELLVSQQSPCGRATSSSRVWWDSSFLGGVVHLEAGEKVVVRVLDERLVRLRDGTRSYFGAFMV

Question: With B1 as the binder, how does the EC50 [1] read?
Answer: 20 nM

Question: Does B1 bind (LTαTyr108Phe)?
Answer: no binding

Question: Does B1 bind [2]?
Answer: no binding

B2: TNFR60:Fc (Fc fusion, UniProt P19438 30-211, looked up)
chain: LVPHLGDREKRDSVCPQGKYIHPQNNSICCTKCHKGTYLYNDCPGPGQDTDCRECESGSFTASENHLRHCLSCSKCRKEMGQVEISSCTVDRDTVCGCRKNQYRHYWSENLFQCFNCSLCLNGTVHLSCQEKQNTVCTCHAGFFLRENECVSCSNCKKSLECTKLCLPQIENVKGTEDSGTT
notes: also called TNFR:Fc; TNFR1-Fc; not shown: Fc region of human IgG1
Question: Does B2 bind [3]?
Answer: no binding

Question: Does B2 bind [4]?
Answer: no binding

B3: LTα homotrimer (ligand, UniProt P01374 35-205, looked up)
chain: LPGVGLTPSAAQTARQHPKMHLAHSTLKPAAHLIGDPSKQNSLLWRANTDRAFLQDGFSLSNNSLLVPTSGIYFVYSQVVFSGKAYSPKATSSPLYLAHEVQLFSSQYPFHVPLLSSQKMVYPGLQEPWLHSMYHGAAFQLTQGDQLSTHTDGIPHLVLSPSTVFFGAFAL
notes: One entry for the recombinant protein and for the native LTα (23-25 kDa, and the 23 kDa precursor) of the human II-23.D7 cells; also called recombinant LTα; secreted LTα
Question: With B3 as the binder, how does the “IC50 (read off the curve)” value [5] read?
Answer: ~50 nM

Question: And the “IC50 (read off the curve)” value [6]?
Answer: ~30 nM

B4: Fas:Fc (Fc fusion, UniProt P25445 26-173, looked up)
chain: QVTDINSKGLELRKTVTTVETQNLEGLHHDGQFCHKPCPPGERKARDCTVNGDEPDCVPCQEGKEYTDKAHFSSKCRRCRLCDEGHGLEVEINCTRTQNTKCRCKPNFFCNSTVCEHCDPCTKCEHGIIKECTLTSNTKCKEEGSRSN
notes: not shown: Fc region of human IgG1
Question: Does B4 bind [7]?
Answer: no binding
